The text below walks through data of patent publication CN113045663A (SHENZHEN INNOVA NANOBODI CO LTD, dated 2021).

The target of this experiment is T1, 血清标本中的HE4抗原 (human, UniProt Q14508 31-124, limits assumed).
T1 construct: Serum HE4 detected in the sandwich assay; kept apart from the recombinant antigen; also called 血清中HE4; 质控血清HE4
T1 sequence (looked up): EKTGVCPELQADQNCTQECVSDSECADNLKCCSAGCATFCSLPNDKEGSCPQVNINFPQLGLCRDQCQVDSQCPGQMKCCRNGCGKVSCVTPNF
The experiment in a line: double-antibody sandwich chemiluminescent ELISA, capture antibody. A general note: ELISA stands for enzyme-linked immunosorbent assay.

B1: FC融合纳米抗体3C8 (Fc fusion)
chain: QLQESGGGLVQAGGSVRLSCAASGRTFRRYHMGWFRQTPGKEREFVAAISWSGGTTYYAESVKGRFTISRDNAKNTIYLQMNSLKPEDTAVYYCAPTYGNYWHPSGYWGQGTQVTVSS
notes: Capture antibody of the double-antibody sandwich assay; also called 3C8 (捕获一抗); 捕获抗体3C8; not shown: Fc part and any linker
Consider B1, for which the binding result is reported as “binds”.
